B1: FBXO44 (endogenous F-box protein FBXO44) (other, human, UniProt Q9H4M3 1-255, looked up)
chain: MAVGNINELPENILLELFTHVPARQLLLNCRLVCSLWRDLIDLVTLWKRKCLREGFITEDWDQPVADWKIFYFLRSLHRNLLHNPCAEEGFEFWSLDVNGGDEWKVEDLSRDQRKEFPNDQVKKYFVTSYYTCLKSQVVDLKAEGYWEELMDTTRPDIEVKDWFAARPDCGSKYQLCVQLLSSAHAPLGTFQPDPATIQQKSDAKWREVSHTFSNYPPGVRYIWFQHGGVDTHYWAGWYGPRVTNSSITIGPPLP
notes: Endogenous protein in cell lysates or chromatin fractions; also called FBX044
B2: CUL4B (endogenous) (other, UniProt Q13620 1-913, looked up)
chain: MMSQSSGSGDGNDDEATTSKDGGFSSPSPSAAAAAQEVRSATDGNTSTTPPTSAKKRKLNSSSSSSSNSSNEREDFDSTSSSSSTPPLQPRDSASPSTSSFCLGVSVAASSHVPIQKKLRFEDTLEFVGFDAKMAEESSSSSSSSSPTAATSQQQQLKNKSILISSVASVHHANGLAKSSTTVSSFANSKPGSAKKLVIKNFKDKPKLPENYTDETWQKLKEAVEAIQNSTSIKYNLEELYQAVENLCSYKISANLYKQLRQICEDHIKAQIHQFREDSLDSVLFLKKIDRCWQNHCRQMIMIRSIFLFLDRTYVLQNSMLPSIWDMGLELFRAHIISDQKVQNKTIDGILLLIERERNGEAIDRSLLRSLLSMLSDLQIYQDSFEQRFLEETNRLYAAEGQKLMQEREVPEYLHHVNKRLEEEADRLITYLDQTTQKSLIATVEKQLLGEHLTAILQKGLNNLLDENRIQDLSLLYQLFSRVRGGVQVLLQQWIEYIKAFGSTIVINPEKDKTMVQELLDFKDKVDHIIDICFLKNEKFINAMKEAFETFINKRPNKPAELIAKYVDSKLRAGNKEATDEELEKMLDKIMIIFRFIYGKDVFEAFYKKDLAKRLLVGKSASVDAEKSMLSKLKHECGAAFTSKLEGMFKDMELSKDIMIQFKQYMQNQNVPGNIELTVNILTMGYWPTYVPMEVHLPPEMVKLQEIFKTFYLGKHSGRKLQWQSTLGHCVLKAEFKEGKKELQVSLFQTLVLLMFNEGEEFSLEEIKQATGIEDGELRRTLQSLACGKARVLAKNPKGKDIEDGDKFICNDDFKHKLFRIKINQIQMKETVEEQASTTERVFQDRQYQIDAAIVRIMKMRKTLSHNLLVSEVYNQLKFPVKPADLKKRIESLIDRDYMERDKENPNQYNYIA
notes: also called CRL4 component

Assays:
[1] = molecular target: CUL1 (endogenous) (UniProt Q13616 1-776); assay: IP from chromatin fractions, immunoblot (FIG. 1F)
Sequence of CUL1 (endogenous) (Q13616 whole entry): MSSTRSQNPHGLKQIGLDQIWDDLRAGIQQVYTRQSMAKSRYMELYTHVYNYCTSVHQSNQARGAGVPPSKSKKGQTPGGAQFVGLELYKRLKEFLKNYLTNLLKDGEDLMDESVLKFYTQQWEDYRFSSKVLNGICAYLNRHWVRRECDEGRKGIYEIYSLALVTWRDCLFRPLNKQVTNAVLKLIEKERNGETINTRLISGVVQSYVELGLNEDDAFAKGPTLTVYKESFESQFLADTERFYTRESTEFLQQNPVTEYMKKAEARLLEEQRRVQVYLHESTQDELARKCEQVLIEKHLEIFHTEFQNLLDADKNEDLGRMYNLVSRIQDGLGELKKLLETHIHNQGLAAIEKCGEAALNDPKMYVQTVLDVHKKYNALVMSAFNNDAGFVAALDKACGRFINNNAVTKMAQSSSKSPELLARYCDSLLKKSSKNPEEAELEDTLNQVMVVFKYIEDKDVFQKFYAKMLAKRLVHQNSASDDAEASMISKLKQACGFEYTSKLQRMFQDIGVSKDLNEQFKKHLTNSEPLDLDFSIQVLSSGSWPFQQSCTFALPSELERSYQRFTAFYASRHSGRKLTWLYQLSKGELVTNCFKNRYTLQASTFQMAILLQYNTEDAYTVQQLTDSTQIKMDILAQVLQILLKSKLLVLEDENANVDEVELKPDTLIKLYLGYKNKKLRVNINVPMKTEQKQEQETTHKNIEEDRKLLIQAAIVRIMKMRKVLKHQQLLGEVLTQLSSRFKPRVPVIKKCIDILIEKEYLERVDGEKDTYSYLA

[2] = molecular target: T1, GATAD2B (endogenous) (UniProt Q8WXI9 1-593); assay: co-IP of endogenous FBXO44, control vs SUV39H1 KD (FIG. 3I; its legend names GATAD2A)
T1 construct: also called Mi-2/NuRD component
T1 sequence (Q8WXI9 whole entry): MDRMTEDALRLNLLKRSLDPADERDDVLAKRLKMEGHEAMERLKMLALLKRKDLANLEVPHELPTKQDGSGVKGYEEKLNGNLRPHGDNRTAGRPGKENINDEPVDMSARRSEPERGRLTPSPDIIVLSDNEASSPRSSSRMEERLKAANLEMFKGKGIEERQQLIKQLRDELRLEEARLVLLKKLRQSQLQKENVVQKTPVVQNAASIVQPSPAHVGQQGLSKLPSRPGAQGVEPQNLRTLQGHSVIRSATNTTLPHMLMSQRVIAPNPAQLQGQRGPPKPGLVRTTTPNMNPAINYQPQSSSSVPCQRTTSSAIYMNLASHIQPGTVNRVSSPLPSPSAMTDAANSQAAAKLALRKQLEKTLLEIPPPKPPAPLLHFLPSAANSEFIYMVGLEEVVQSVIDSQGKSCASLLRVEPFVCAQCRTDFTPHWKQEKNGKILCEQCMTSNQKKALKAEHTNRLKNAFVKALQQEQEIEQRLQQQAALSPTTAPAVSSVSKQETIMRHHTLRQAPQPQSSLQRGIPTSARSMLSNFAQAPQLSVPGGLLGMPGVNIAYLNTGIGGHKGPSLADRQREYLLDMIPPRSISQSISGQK
Description: (§1) Immunoprecipitation or co-immunoprecipitation (IP or co-IP): for IP, cells were lysed in IP buffer (50 mM Tris-HCl [pH 7.4], 125 mM NaCl, 1 mM EDTA, 0.1% Triton X-100) with inhibitors (50 mM NaF, 1 mM PMSF, 1 mM Na₃VO₄, 1 μg/mL Aprotinin, 1 μg/mL Leupeptin, 1 μg/mL Pepstatin) followed by sonication and centrifugation to clear insoluble debris. Lysates were then incubated with protein G agarose beads and IgG antibody of the same species as the IP antibody for 2 hr at 4° C. to reduce non-specific binding. The cleared lysates were then incubated with IP antibody overnight at 4° C. Specifically, for Flag IP, 5 μg of anti-Flag antibody (Sigma-Aldrich no. F7425) was used for 2500 μg of protein lysate. For Myc IP, anti-Myc antibody (Cell Signaling Technology no. 2276) was used at 1:1000 dilution. For FBXO44 IP, 5 μL of anti-FBXO44 antibody (Sigma-Aldrich no. HPA003363) was used for 10⁶ cells. Beads were washed with IP buffer, boiled in 1×SDS gel loading buffer, and subjected to electrophoresis.
(§2) Next, to characterize FBXO44's molecular interactions with interactions with SUV39H1, CRL4RBBP4/7, and Mi-2/NuRD, Co-IP experiments were performed as described in example 3. For SUV39H1 IP, anti-SUV39H1 antibody (Millipore no. 05-615) was used at 1:100 dilution. For CUL4B IP, 2 μg of anti-CUL4B antibody (Proteintech no. 12916-1-AP) was used for 2500 μg of protein lysate. […]

[3] = molecular target: T2, RBBP7 (endogenous) (UniProt Q16576 2-425); assay: co-IP of endogenous FBXO44 in MDA-MB-231 cells, immunoblot (FIG. 4A)
T2 construct: also called DCAF RBBP7
T2 sequence (Q16576 2-425 limits assumed): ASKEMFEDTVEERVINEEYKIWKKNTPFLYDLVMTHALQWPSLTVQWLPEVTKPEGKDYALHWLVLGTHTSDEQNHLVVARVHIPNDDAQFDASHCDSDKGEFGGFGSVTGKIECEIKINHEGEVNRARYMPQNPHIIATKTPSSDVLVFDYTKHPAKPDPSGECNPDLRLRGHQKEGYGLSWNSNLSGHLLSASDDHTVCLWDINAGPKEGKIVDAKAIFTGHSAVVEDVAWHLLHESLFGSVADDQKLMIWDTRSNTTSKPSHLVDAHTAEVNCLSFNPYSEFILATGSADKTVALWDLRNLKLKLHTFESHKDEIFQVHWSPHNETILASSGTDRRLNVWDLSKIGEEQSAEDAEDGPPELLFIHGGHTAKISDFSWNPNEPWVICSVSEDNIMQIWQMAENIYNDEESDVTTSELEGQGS

[4] = molecular target: T3, RBBP4 (endogenous) (UniProt Q09028 2-425); assay: as above
T3 construct: also called DCAF RBBP4
T3 sequence (Q09028 2-425 limits assumed): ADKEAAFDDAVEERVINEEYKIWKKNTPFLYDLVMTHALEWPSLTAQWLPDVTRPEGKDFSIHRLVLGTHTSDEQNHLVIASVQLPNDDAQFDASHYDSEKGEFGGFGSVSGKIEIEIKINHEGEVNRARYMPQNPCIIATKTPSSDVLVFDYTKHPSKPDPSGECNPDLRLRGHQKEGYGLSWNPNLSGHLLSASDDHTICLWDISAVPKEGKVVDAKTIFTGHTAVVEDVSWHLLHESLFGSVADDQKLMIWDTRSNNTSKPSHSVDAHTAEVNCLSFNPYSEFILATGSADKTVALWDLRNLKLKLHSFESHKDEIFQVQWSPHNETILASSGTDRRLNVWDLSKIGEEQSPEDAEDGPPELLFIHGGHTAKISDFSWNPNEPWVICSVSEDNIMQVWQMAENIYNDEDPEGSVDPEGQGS

[5] = molecular target: B2; assay: co-IP of endogenous FBXO44 in MDA-MB-231 cells, immunoblot; CRL4 components named CUL4A/CUL4B in the legend of FIG. 4A
[6] = molecular target: Flag-Histone H3.1 (UniProt P68431 1-136); assay: co-IP of endogenous FBXO44 with Flag-Histone H3.1 or H3.3 (FIG. 5B)
Description: as §1

[7] = molecular target: T4, DDB1 (endogenous) (UniProt Q16531 2-1140); assay: co-IP of endogenous CUL4B with DDB1 (anti-CUL4B antibody), control vs FBXO44 KD cells (FIG. 3G)
T4 construct: also called CRL4 component
T4 sequence (Q16531 2-1140 limits assumed): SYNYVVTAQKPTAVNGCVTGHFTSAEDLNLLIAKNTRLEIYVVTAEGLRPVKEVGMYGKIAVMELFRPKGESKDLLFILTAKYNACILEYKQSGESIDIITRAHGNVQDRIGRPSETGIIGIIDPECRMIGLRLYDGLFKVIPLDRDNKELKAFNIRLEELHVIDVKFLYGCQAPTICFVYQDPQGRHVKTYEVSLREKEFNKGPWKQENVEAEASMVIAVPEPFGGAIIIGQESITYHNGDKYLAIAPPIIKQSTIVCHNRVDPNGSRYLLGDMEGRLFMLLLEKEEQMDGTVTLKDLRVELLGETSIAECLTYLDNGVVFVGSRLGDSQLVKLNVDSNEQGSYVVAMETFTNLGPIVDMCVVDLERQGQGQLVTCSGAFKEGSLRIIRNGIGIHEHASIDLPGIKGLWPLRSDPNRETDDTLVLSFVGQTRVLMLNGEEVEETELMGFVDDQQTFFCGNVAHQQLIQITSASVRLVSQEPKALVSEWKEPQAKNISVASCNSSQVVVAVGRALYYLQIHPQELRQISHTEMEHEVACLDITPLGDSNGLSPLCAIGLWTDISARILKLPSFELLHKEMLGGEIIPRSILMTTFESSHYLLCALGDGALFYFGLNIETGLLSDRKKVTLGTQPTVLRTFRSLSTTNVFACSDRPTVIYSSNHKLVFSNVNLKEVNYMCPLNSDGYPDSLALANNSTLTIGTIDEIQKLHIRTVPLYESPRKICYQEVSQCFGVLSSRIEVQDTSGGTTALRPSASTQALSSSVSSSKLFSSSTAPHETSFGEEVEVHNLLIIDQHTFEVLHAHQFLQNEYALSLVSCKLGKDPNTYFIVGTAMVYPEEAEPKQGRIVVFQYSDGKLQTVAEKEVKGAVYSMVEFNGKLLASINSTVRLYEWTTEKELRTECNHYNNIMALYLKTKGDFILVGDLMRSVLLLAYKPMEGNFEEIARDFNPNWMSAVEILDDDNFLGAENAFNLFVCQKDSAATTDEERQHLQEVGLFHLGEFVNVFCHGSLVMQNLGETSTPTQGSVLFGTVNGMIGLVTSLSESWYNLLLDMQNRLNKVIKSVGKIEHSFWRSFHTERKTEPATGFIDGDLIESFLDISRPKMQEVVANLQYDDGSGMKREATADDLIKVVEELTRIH
Description: as §1, §2

Measured: binding result

B1
not listed: [7]
binds: all other assays above

B2
binds: [7]

— patent US20230340127A1 (SANFORD BURNHAM PREBYS MEDICAL DISCOVERY INSTITUTE, published 2023)
